Results: US20210054094A1 (Hoffmann-La Roche, published 2021)
Where a chain is given by its changes, count along the chain named.

B1: B72-TCB (bispecific antibody, human IgG1, kappa, L234A L235A)
heavy 1: not shown
light 1: EVQLVESGGGLVQPGGSLRLSCAASGFTFNTYAMNWVRQAPGKGLEWVARIRSKYNNYATYYAASVKGRFTISRDDSKNSLYLQMNSLKTEDTAVYYCARHGNFGNSYVSWFAYWGQGTLVTVSSASVAAPSVFIFPPSDEQLKSGTASVVCLLNNFYPREAKVQWKVDNALQSGNSQESVTEQDSKDSTYSLSSTLTLSKADYEKHKVYACEVTHQGLSSPVTKSFNRGEC
heavy 2: QVQLVQSGAEVKKPGASVKVSCKASGYSFTGYTMNWVRQAPGQGLEWMGLINPYNSDTNYAQKLQGRVTMTTDTSTSTAYMELRSLRSDDTAVYYCARVALRVALDYWGQGTLVTVSSASTKGPSVFPLAPSSKSTSGGTAALGCLVEDYFPEPVTVSWNSGALTSGVHTFPAVLQSSGLYSLSSVVTVPSSSLGTQTYICNVNHKPSNTKVDEKVEPKSCDKTHTCPPCPAPEAAGGPSVFLFPPKPKDTLMISRTPEVTCVVVDVSHEDPEVKFNWYVDGVEVHNAKTKPREEQYNSTYRVVSVLTVLHQDWLNGKEYKCKVSNKALGAPIEKTISKAKGQPREPQVCTLPPSRDELTKNQVSLSCAVKGFYPSDIAVEWESNGQPENNYKTTPPVLDSDGSFFLVSKLTVDKSRWQQGNVFSCSVMHEALHNHYTQKSLSLSPGK
light 2: DIQMTQSPSSLSASVGDRVTITCKASQNVATHVGWYQQKPGKAPKRLIYSASYRYSGVPSRFSGSGSGTEFTLTISNLQPEDFATYYCQQYNRYPYTFGQGTKLEIKRTVAAPSVFIFPPSDRKLKSGTASVVCLLNNFYPREAKVQWKVDNALQSGNSQESVTEQDSKDSTYSLSSTLTLSKADYEKHKVYACEVTHQGLSSPVTKSFNRGEC
B2: P1AE5706 (antibody, V domains shown)
VH: ELQLEQSGGGLVQPGGSLTLSCAASGFTFSKYAMAWVRQAPTKGLEWVASISTGGVNTYYRDSVKARFTISRDNAKNTQYLQMDSLRSEDTATYYCATHTGDYFDYWGQGVMVTVSS
VL: DIVLTQSPALAVSPGQRATISCRASQSVSISGINLMNWYQQKPGQQPKLLIYHASILASGIPTRFSGSGSGTDFTLTIDPVQADDIATYYCQQTRESPLTFGSGTNLEIK
B3: P1AE5718 (antibody, V domains shown)
VH: B2 VH with E5L, Q6E, T19R, T42G, Q79L, D84N, S88A, T93V, V111T
VL: DIQMTQSPSSLSASVGDRVTITCRASQSVSISGINLMNWYQQKPGKQPKLLIYHASILASGVPSRFSGSGSGTDFTLTISSLQPEDFATYYCQQTRESPLTFGQGTRLEIK
B4: P1AE5719 (antibody, V domains shown)
VH: B2 VH with E5L, Q6E, T19R, T42G, Q79L, D84N, S88A, T93V, V111T
VL: B3 VL with K46Q
B5: P1AE5707 (antibody, V domains shown)
VH: EVQLLESGGGLVQPGGSLRLSCAASGFTFSKYAMAWVRQAPGKGLEWVASISTGGVNTYYRDSVKARFTISRDNSKNTLYLQMNSLRAEDTAVYYCATHTGDYFDYWGQGTMVTVSS
VL: DIVMTQSPDSLAVSLGERATINCRASQSVSISGINLMNWYQQKPGQQPKLLIYHASILASGVPDRFSGSGSGTDFTLTISSLQAEDVAVYYCQQTRESPLTFGQGTRLEIK
B6: P1AE5730 (antibody, V domains shown)
VH: B5 VH with V2L, R61A, A66G, S75A
VL: B3 VL
B7: P1AE5724 (antibody, V domains shown)
VH: B5 VH with R61A, A66G
VL: B3 VL
B8: P1AE5725 (antibody, V domains shown)
VH: B5 VH with R61A, A66G
VL: B3 VL with K46Q
B9: P1AE5709 (antibody, V domains shown)
VH: B5 VH
VL: EIVLTQSPGTLSLSPGERATLSCRASQSVSISGINLMNWYQQKPGQQPRLLIYHASILASGIPDRFSGSGSGTDFTLTISRLEPEDFAVYYCQQTRESPLTFGQGTRLEIK
B10: P1AE5731 (antibody, V domains shown)
VH: B5 VH with V2L, R61A, A66G, S75A
VL: B3 VL with K46Q
B11: P1AE5712 (antibody, V domains shown)
VH: B5 VH
VL: B3 VL
B12: P1AE5723 (antibody, V domains shown)
VH: B5 VH with R61A, A66G
VL: B9 VL with R49K
B13: P1AE5729 (antibody, V domains shown)
VH: B5 VH with V2L, R61A, A66G, S75A
VL: B9 VL with R49K
B14: P1AE5727 (antibody, V domains shown)
VH: B5 VH with V2L, R61A, A66G, S75A
VL: B5 VL with R24K, A25S
B15: P1AE5721 (antibody, V domains shown)
VH: B5 VH with R61A, A66G
VL: B5 VL with R24K, A25S
B16: P1AE5710 (antibody, V domains shown)
VH: B5 VH
VL: B9 VL with R49K
B17: P1AE5722 (antibody, V domains shown)
VH: B5 VH with R61A, A66G
VL: B9 VL
B18: P1AE5714 (antibody, V domains shown)
VH: B5 VH with V2L, S75A
VL: B5 VL
B19: P1AE5716 (antibody, V domains shown)
VH: B5 VH with V2L, S75A
VL: B9 VL
B20: P1AE5713 (antibody, V domains shown)
VH: B5 VH
VL: B3 VL with K46Q
B21: P1AE5708 (antibody, V domains shown)
VH: B5 VH
VL: B5 VL with R24K, A25S
B22: P1AE5715 (antibody, V domains shown)
VH: B5 VH with V2L, S75A
VL: B5 VL with R24K, A25S
B23: P1AE5720 (antibody, V domains shown)
VH: B5 VH with R61A, A66G
VL: B5 VL
B24: P1AE5726 (antibody, V domains shown)
VH: B5 VH with V2L, R61A, A66G, S75A
VL: B5 VL
B25: P1AE5728 (antibody, V domains shown)
VH: B5 VH with V2L, R61A, A66G, S75A
VL: B9 VL
B26: P1AE5717 (antibody, V domains shown)
VH: B5 VH with V2L, S75A
VL: B9 VL with R49K
B27: ET150-5-TCB (bispecific antibody, human IgG1, lambda, L234A L235A)
light 1: QSVLTQPPSASGTPGQRVTISCSGSRSNVGGNYVFWYQQVPGATPKLLIYRSNQRPSGVPDRFAGSKSGSSASLAISGLRSEDEADYYCATWDDSLSGFVFGTGTKVTVLGQPKAAPSVTLFPPSSKKLQANKATLVCLISDFYPGAVTVAWKADSSPVKAGVETTTPSKQSNNKYAASSYLSLTPEQWKSHRSYSCQVTHEGSTVEKTVAPTECS
light 2: B1 light 1 with V5L, N30S, A49S, A64D, S80T, K89R, T90A, A99V
heavy 1: EVQLVESGGGLVKPGGSLRLSCAASGFTFSDYYMSWIRQAPGKGLEWVSYISSSGSTIYYADSVKGRFTISRDNAKNSLYLQMNSLRAEDTAVYYCARGYGKAYDQWGQGTLVTVSSASTKGPSVFPLAPSSKSTSGGTAALGCLVEDYFPEPVTVSWNSGALTSGVHTFPAVLQSSGLYSLSSVVTVPSSSLGTQTYICNVNHKPSNTKVDEKVEPKSCDKTHTCPPCPAPEAAGGPSVFLFPPKPKDTLMISRTPEVTCVVVDVSHEDPEVKFNWYVDGVEVHNAKTKPREEQYNSTYRVVSVLTVLHQDWLNGKEYKCKVSNKALGAPIEKTISKAKGQPREPQVCTLPPSRDELTKNQVSLSCAVKGFYPSDIAVEWESNGQPENNYKTTPPVLDSDGSFFLVSKLTVDKSRWQQGNVFSCSVMHEALHNHYTQKSLSLSPGK
heavy 2: not shown

Each binder was assayed against T1, human GPRC5D (human, UniProt Q9NZD1 1-345) (assay: cell-based or functional assay).
T1 sequence (Q9NZD1 whole entry): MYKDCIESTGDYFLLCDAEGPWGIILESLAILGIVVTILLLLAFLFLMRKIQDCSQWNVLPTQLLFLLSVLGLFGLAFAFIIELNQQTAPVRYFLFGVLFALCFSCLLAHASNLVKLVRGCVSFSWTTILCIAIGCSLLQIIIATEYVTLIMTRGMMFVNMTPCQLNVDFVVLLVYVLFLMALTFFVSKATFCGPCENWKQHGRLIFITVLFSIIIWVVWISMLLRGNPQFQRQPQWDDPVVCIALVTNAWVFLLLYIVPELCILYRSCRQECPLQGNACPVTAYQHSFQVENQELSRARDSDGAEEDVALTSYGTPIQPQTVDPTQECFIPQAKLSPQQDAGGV
In the case of B1, the “EC50 of in vitro killing, AMO-1 cells” value is reported as 0.109 nM, the “EC50 of in vitro killing, EJM cells” value is reported as 0.06 nM and the “EC50 of in vitro killing, L363 cells” value is reported as 0.058 nM. The “EC50 of in vitro killing, MOLP-2 cells” value was 0.124 nM, the “EC50 of in vitro killing, NCI-H929 cells” value was 0.058 nM and the “EC50 of in vitro killing, OPM-2 cells” value was 0.171 nM. The “EC50 of in vitro killing, RPMI cells” value was 0.193 nM.

Target: T1, human GPRC5D
Experiment: cell-based or functional assay
Remark: another data set of the same source
For B2, the “CAR-J2 EC50 (PGLALA-CAR-J activation, L363 target cells)” value (shortened to “CAR-J2 EC50”) was 3.9 ng/mL.
In the case of B3, the “CAR-J2 EC50” value is reported as 105 ng/mL.
In the case of B4, the “CAR-J2 EC50” value is reported as 2.8 ng/mL.
For B5, the “CAR-J2 EC50” value was 42.4 ng/mL.
With B6 the “CAR-J2 EC50” value was 3.5 ng/mL.
B7 was tested, and the “CAR-J2 EC50” value was 3.6 ng/mL.
B8 was tested, and the “CAR-J2 EC50” value was 10.9 ng/mL.
With B9 the “CAR-J2 EC50” value was 59.4 ng/mL.
In the case of B10, the “CAR-J2 EC50” value is reported as 2.3 ng/mL.
With B11 the “CAR-J2 EC50” value was 16.1 ng/mL.
With B12 the “CAR-J2 EC50” value was 3.7 ng/mL.
With B13 the “CAR-J2 EC50” value was 61.3 ng/mL.
With B14 the “CAR-J2 EC50” value was 6.3 ng/mL.
In the case of B15, the “CAR-J2 EC50” value is reported as 25 ng/mL.
B16 was tested, and the “CAR-J2 EC50” value was 3.5 ng/mL.
For B17, the “CAR-J2 EC50” value was 4.6 ng/mL.
With B18 the “CAR-J2 EC50” value was 5.5 ng/mL.
B19 was tested, and the “CAR-J2 EC50” value was 3.3 ng/mL.
For B20, the “CAR-J2 EC50” value was 76.9 ng/mL.
B21 was tested, and the “CAR-J2 EC50” value was 456 ng/mL.
In the case of B22, the “CAR-J2 EC50” value is reported as 3.6 ng/mL.
B23 was tested, and the “CAR-J2 EC50” value was 6.3 ng/mL.
B24 was tested, and the “CAR-J2 EC50” value was 37.8 ng/mL.
In the case of B25, the “CAR-J2 EC50” value is reported as 5.6 ng/mL.
With B26 the “CAR-J2 EC50” value was 79.9 ng/mL.

Target: T1, human GPRC5D
Experiment: cell-based or functional assay
Remark: another data set of the same source
In the case of B27, the “EC50 of T cell cytotoxicity (LDH release) on AMO-1 cells” value is reported as 0.0835 nM, the “EC50 of T cell cytotoxicity (LDH release) on L363 cells” value is reported as 0.768 nM and the “EC50 of T cell cytotoxicity (LDH release) on NCI-H929 cells” value is reported as 0.833 nM. For the same binder, the “EC50 of T cell cytotoxicity (LDH release) on RPMI-8226 cells” value was 0.797 nM.
